# Assay results from patent US20220106398A1 (IGM BIOSCIENCES, published 2022).
# Changes are numbered by the printed parent chain.
# T1: human His6-GITR (human, UniProt Q9Y5U5 26-162)
# T1 construct: His6-tagged recombinant protein; also called hGITR-His; human GITR-His
# T1 sequence: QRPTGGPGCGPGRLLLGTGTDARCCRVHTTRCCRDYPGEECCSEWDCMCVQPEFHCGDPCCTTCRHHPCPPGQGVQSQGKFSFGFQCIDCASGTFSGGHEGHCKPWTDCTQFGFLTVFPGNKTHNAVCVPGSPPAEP
# T2: cynomolgus monkey His6-GITR (cynomolgus monkey)
# T2 construct: His6-tagged recombinant protein; also called cGITR-His; cyno GITR-His
# T2 chain: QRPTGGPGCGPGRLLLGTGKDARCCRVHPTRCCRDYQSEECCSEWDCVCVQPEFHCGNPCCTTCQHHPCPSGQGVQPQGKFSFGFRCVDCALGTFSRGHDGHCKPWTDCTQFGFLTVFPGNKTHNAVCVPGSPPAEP
# T3: mouse His6-GITR (mouse, UniProt O35714 20-153)
# T3 construct: His6-tagged recombinant protein; also called mGITR-His; mouse GITR-His
# T3 sequence: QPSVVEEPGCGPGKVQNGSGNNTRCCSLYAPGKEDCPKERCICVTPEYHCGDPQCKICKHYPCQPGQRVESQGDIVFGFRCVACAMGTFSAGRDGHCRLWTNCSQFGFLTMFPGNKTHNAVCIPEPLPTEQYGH
# B1: GITR-Mab-5 scFv (scFv, V domains shown)
# VH: EVQLLESGGGLVQPGGSLRLSCAASGFTFDAYAMHWVRQAPGKGLEWVSAIGTGGDTYYADSVKGRFTISRDNSKNTLYLQMNSLRAEDTAVYYCARDLYGSGSPQYYYYYGMDVWGQGTTVTVSS
# VL: DIQMTQSPSSLSASVGDRVTITCRASQGIKNDLGWYQQKPGKAPKLLIYAASSLQSGVPSRFSGSGSGTDFTLTISSLQPEDFATYYCQQSYSVPFTFGQGTKVEIK
# notes: scFv in periplasmic extract, V5 tag
# B2: GITR-Mab-7 scFv (scFv, V domains shown)
# VH: QVQLVQSGAEVKKPGASVKVSCKASGGTSSTYAVTWVRQAPGQGLEWMGVINPNDGSTTYAQNFQGRVTMTRDTSTSTVYMELSSLRSEDTAVYYCARWTPLFGVVIPDYYYYGMDVWGQGTLVTVSS
# VL: B1 VL with R24Q, G28D, K30S, D32Y, G34N, V94T, F96P, K103R, V104L
# notes: as for B1
# B3: GITR-Mab-8 scFv (scFv, V domains shown)
# VH: QVQLVQSGAEVKKPGASVKVSCKASGGTFSSYVISWVRQAPGQGLEWMGWMNPGSGNTGYAQKFQGRVTMTRDTSTSTVYMELSSLRSEDTAVYYCITDSEDDYWGQGTLVTVSS
# VL: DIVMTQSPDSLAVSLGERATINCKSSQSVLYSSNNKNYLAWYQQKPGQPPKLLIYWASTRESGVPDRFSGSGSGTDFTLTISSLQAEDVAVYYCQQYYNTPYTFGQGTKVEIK
# notes: as for B1
# B4: GITR-Mab-6 scFv (scFv, V domains shown)
# VH: QVQLVQSGAEVKKPGASVKVSCKASGYAFTAYYLHWVRQAPGQGLEWMGWMNPNSGNTGYAQKFQGRVTMTRDTSTSTVYMELSSLRSEDTAVYYCAREGWGYYDGGFDPWGQGTLVTVSS
# VL: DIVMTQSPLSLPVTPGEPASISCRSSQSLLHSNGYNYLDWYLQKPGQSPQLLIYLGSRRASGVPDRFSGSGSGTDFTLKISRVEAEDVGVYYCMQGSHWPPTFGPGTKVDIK
# notes: as for B1
# B5: GITR-Mab-17 scFv (scFv, V domains shown)
# VH: QVQLVQSGAEVKKPGASVKVSCKASGYTFTSYGISWVRQAPGQGLEWMGWMNPNSGNTGYAQKFQGRVTMTRDTSTSTVYMELSSLRSEDTAVYYCARLGLWFGEYQYYFDYWGQGTLVTVSS
# VL: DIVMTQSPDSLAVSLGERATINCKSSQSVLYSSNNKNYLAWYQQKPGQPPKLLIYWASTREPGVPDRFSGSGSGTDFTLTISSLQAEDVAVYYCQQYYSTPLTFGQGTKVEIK
# notes: as for B1
# B6: GITR-Mab-3 scFv (scFv, V domains shown)
# VH: QVQLVQSGAEVKKPGASVKVSCKASGYTFTSYDINWVRQAPGQGLEWMGWISGYNGNTNYAQKFQGRVTMTRDTSTSTVYMELSSLRSEDTAVYYCARSHEYYYYYGMDVWGQGTLVTVSS
# VL: EIVMTQSPATLSVSPGERATLSCRASQSVSSSYLAWYQQKPGQAPRLLIYGASTRATGIPARFSGSGSGTEFTLTISSLQSEDFAVYYCQQYYTTPFTFGPGTKVDIK
# notes: as for B1
# B7: GITR-Mab-47 scFv (scFv, V domains shown)
# VH: QVQLVQSGAEVKKPGSSVKVSCKASGGTFSTYAINWVRQAPGQGLEWMGIINPTDGDTSYAQKFQGRVTITADESTSTAYMELSSLRSEDTAVYYCARAAYYYYGMDVWGQGTTVTVSS
# VL: not shown
# notes: as for B1
# B8: GITR-Mab-43 scFv (scFv, V domains shown)
# VH: QVQLVQSGAEVKKPGASVKVSCKASGYTFTSHDIDWVRQAPGQGLEWMGWMNPNNGNTVYAQRFQGRVTMTRDTSTSTVYMELSSLRSEDTAVYYCARWKVYSGSYYGGAGYFDLWGRGTLVTVSS
# VL: DIQMTQSPSSLSASVGDRVTITCRASQSISSYLNWYQQKPGKAPKLLIYRASHLEGGVPSRFSGSGSGTDFTLTISSLQPEDFATYYCQQADSLPLTFGQGTKVEIK
# notes: as for B1
# B9: GITR-Mab-41 scFv (scFv, V domains shown)
# VH: QVQLVQSGAEVKKPGASVKVSCKASGGSFSDYAVSWVRQAPGQGLEWMGWMNPNSGNTGYAQKFQGRVTMTRDTSTSTVYMELSSLRSEDTAVYYCARELVRDGYNFALDYWGQGTLVTVSS
# VL: B1 VL with G28D, K30R, G34A, Y92F, V94T, P95F, F96Y, V104L
# notes: as for B1
# B10: GITR-Mab-26 scFv (scFv, V domains shown)
# VH: QVQLVQSGAEVKKPGASVKVSCKASGYTFTSYGISWVRQAPGQGLEWMGWMNPNNGNTVYAQKFQGRVTMTRDTSTSTVYMELSSLRSEDTAVYYCAKDSDWYGAFDIWGQGTMVTVSS
# VL: B1 VL with R24Q, G28S, K30S, N31R, D32W, G34A, A50S, V94T, F96W, V104L
# notes: as for B1
# B11: GITR-Mab-44 scFv (scFv, V domains shown)
# VH: QVQLVQSGAEVKKPGASVKVSCKASGYTFTSHDIDWVRQAPGQGLEWMGWINPSGDSTSYAQKFQGRVTMTRDTSTSTVYMELSSLRSEDTAVYYCARYYGGNSYAFDIWGQGTMVTVSS
# VL: DIQMTQSPSSLSASVGDRVTITCRASESISPWVAWYQQKPGKAPKLLIYAASTLQSGVPSRFSGSGSGTDFTLTISSLQPEDFATYYCQQGTSTPYTFGQGTKLEIK
# notes: as for B1
# B12: GITR-Mab-23 scFv (scFv, V domains shown)
# VH: EVQLLESGGGLVQPGGSLRLSCAASGFPFSTYAIHWVRQAPGKGLEWVSAISGSGGSTYYADSVKGRFTISRDNSKNTLYLQMNSLRAEDTAVYYCAGPDWYFDLWGRGTLVTVSS
# VL: B11 VL with E27Q, S28A, P31N, W32S, V33L, S56R, G91Y, T92Y
# notes: as for B1
# B13: GITR-Mab-25 scFv (scFv, V domains shown)
# VH: QVQLVQSGAEVKKPGASVKVSCKASGGTFSSYAISWVRQAPGQGLEWMGWVSGYNGNANYAQKFQGRVTMTRDTSTSTVYMELSSLRSEDTAVYYCARDRVESGYSYHDAFDIWGQGTMVTVSS
# VL: B1 VL with A25T, G28S, K30R, N31R, D32Y, G34N, V94I, F96W, Q100P, E105D
# notes: as for B1
# B14: GITR-Mab-48 scFv (scFv, V domains shown)
# VH: QVQLVQSGAEVKKPGASVKVSCKASGYSFTSHDIDWVRQAPGQGLEWMGWINPNSGGTNYAQKFQGRVTMTRDTSTSTVYMELSSLRSEDTAVYYCARIRGYYGSGSYHDAFDIWGQGTTVTVSS
# VL: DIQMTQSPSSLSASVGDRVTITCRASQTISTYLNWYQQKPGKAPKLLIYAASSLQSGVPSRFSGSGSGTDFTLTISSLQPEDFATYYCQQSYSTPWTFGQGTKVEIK
# notes: as for B1
# B15: GITR-Mab-42 scFv (scFv, V domains shown)
# VH: QVQLVQSGAEVKKPGASVKVSCKASGYIFTNYWIQWVRQAPGQGLEWMGWINPHSGATKYAERFQGRVTMTRDTSTSTVYMELSSLRSEDTAVYYCARGLGSAFDIWGQGTMVTVSS
# VL: not shown
# notes: as for B1
# B16: GITR-Mab-46 scFv (scFv, V domains shown)
# VH: QVQLVQSGAEVKKPGASVKVSCKASGGSFSNYAINWVRQAPGQGLEWMGWMNPYSGNTGYAQKFQGRVTMTRDTSTSTVYMELSSLRSEDTAVYYCAREITANYYYGMDVWGQGTKVTVSS
# VL: DIQMTQSPSSLSASVGDRVTITCQASQDISNYLNWYQQKPGKAPKLLIYEASVLESGVPSRFSGSGSGTDFTLTISSLQPEDFATYYCQQSYTTQYTFGQGTKVEIK
# notes: as for B1
# Molecular target: T1, human His6-GITR
# Experiment: CARTERRA LSA, scFv periplasmic extract
row,Kd,Binder
1,8.3 nM,B1
2,11.5 nM,B2
3,49.6 nM,B3
4,0.1 nM,B4
5,24.5 nM,B5
6,10.5 nM,B6

# Molecular target: T1, human His6-GITR
# Experiment: ELISA, scFv periplasmic extract on coated His6-GITR
# Experimental: (§1) The SuperHuman-2.0 scFv Antibody Library (available from Distributed Bio, South San Francisco, Calif.) was used to perform selection with human, cynomolgus or mouse GITR proteins. Selected phage clones from overnight growth were inoculated into wells in 96 well deep well plates containing 1 mL of medium. scFv expression was induced by addition of IPTG (Teknova) to a final concentration of 1 mM. Plates were grown overnight after induction. To prepare periplasmic extracts (PPE), the plates containing the phage clones were centrifuged at 2500 rpm for 10 min, the supernatant discarded and then pellets treated with 75 μL of cold periplasmic extract buffer with appropriate concentration of protease inhibitors (Complete Mini, EDTA-free -Roche Applied Biosciences—Cat No 1836170). After shaking at room temperature for 10 min, 225 μL of cold ddH2O with added protease inhibitor (1 tablet/50 mL) was added per well and mixed by pipetting up and down. PPE extraction was completed by incubation at room temperature for an additional 1 hr. The plates were then centrifuged at 4000 rpm for 20 minutes and 200 μL of PPE supernatant was collected from each well and transferred to a new plate which was then blocked with equal volume of 4% milk (2% final) to prepare blocked PPE extracts. In the meantime, Maxisorp plates (Nunc 442404) coated with relevant antigen (human, mouse or cynomolgus monkey His6-GITR) at 50 μl/well of 1 μg/mL antigen or 2% BSA in PBS as control were prepared for ELISA analyses. Next, 50 μL of each blocked PPE extract was transferred to the pre-blocked ELISA plates coated with the relevant antigens. After incubation and washing 3× with PBS, 50 μL of anti-V5 tag antibody (tag included in the phage display constructs, Invitrogen Cat No R960-25) at 1:5000 dilution in 2% milk was added and the plates were incubated for 1 hr. […] After further washing 3× with PBST, 50 μl/well of TMB substrate was added and the plates were developed until positive controls were visible. The reaction was stopped with 50 μl/well of 2N H2SO4. Plates were read at 450 nm to determine ELISA signal from bound PPE derived scFv.
row,hGITR-His/BKG,Binder
1,13 fold over background,B7
2,11.7 fold over background,B8
3,9.9 fold over background,B9
4,12.7 fold over background,B10
5,12.4 fold over background,B11
6,16.3 fold over background,B1
7,16.4 fold over background,B2
8,35.6 fold over background,B12
9,9.6 fold over background,B3
10,22.2 fold over background,B13
11,9.4 fold over background,B14
12,5.5 fold over background,B15
13,35.8 fold over background,B4
14,4 fold over background,B16
15,18.9 fold over background,B5
16,12.1 fold over background,B6

# Molecular target: T2, cynomolgus monkey His6-GITR
# Experiment: as above
# Experimental: as §1
row,cGITR-His/BKG,Binder
1,21 fold over background,B7
2,12 fold over background,B8
3,10.3 fold over background,B9
4,0.8 fold over background,B10
5,12.3 fold over background,B11
6,8 fold over background,B1
7,9 fold over background,B2
8,23.2 fold over background,B12
9,16.1 fold over background,B3
10,1.1 fold over background,B13
11,8.9 fold over background,B14
12,4.2 fold over background,B15
13,7.5 fold over background,B4
14,5.3 fold over background,B16
15,11.1 fold over background,B6

# Molecular target: T3, mouse His6-GITR
# Experiment: as above
# Experimental: as §1
row,mGITR-His/BKG,Binder
1,24.9 fold over background,B7
2,14.6 fold over background,B8
3,10.4 fold over background,B9
4,1.1 fold over background,B10
5,15.6 fold over background,B11
6,1.2 fold over background,B1
7,1 fold over background,B2
8,0.9 fold over background,B12
9,1.4 fold over background,B3
10,1.1 fold over background,B13
11,9.5 fold over background,B14
12,1 fold over background,B15
13,1 fold over background,B4
14,6.5 fold over background,B16
15,1.1 fold over background,B5
16,1 fold over background,B6
